# Reference: US20190309034A1 (Boehringer Ingelheim, published 2019)
# How the values were obtained:
# [1] = biological target: T1, Recombinant soluble trimeric human BAFF (furin-cleaved human BAFF 134-285) (human, UniProt Q9Y275 134-285); assay: cell-based or functional assay
# [2] = biological target: Recombinant soluble 60-mer human BAFF (His-HuBAFF 134-285) (human, UniProt Q9Y275 134-285); assay: cell-based or functional assay
# [3] = biological target: T1, Recombinant soluble trimeric human BAFF …; assay: SPR, antibody captured on Protein A/G, soluble trimeric BAFF flowed over, 1:1 Langmuir global fit, apparent affinity (at detection limit)
# Procedure: Apparent binding affinities were evaluated using surface plasmon resonance where the antibodies were captured at different surface densities on a Protein A/G surface. Soluble trimeric BAFF at different concentrations were flowed over the captured antibody. Clinical reference antibodies (Reference 1 comprising SEQ ID NOS: 98 and 116) and Reference 2 comprising SEQ ID NOS: 99 and 117) were used as comparators.
# [4] = biological target: T1, Recombinant soluble trimeric human BAFF …; assay: cell-based or functional assay; remark: listed apart in the source
# [5] = biological target: Human membrane-bound BAFF (mbBAFF) (human, UniProt Q9Y275 1-285); assay: cell-based or functional assay
Binder,Soluble trimeric huBAFF (52 pM) Neutralization IC90 [1] [pM],Soluble 60-mer huBAFF (4.2 pM) Neutralization IC90 [2] [pM],Kd [3] [pM],"IC50 (neutralisation of soluble trimeric huBAFF activation of human BAFFR, luciferase reporter CHO cells) [4] [pM]","IC90 (neutralisation of soluble trimeric huBAFF activation of human BAFFR, luciferase reporter CHO cells) [4] [pM]","IC50 (neutralisation of mbBAFF activation of human BAFFR, fixed mbBAFF-CHO mixed with luciferase reporter BAFFR-CHO cells) [5] [pM]"
"210D9B8 (antibody, V domains shown, Mouse lead antibody (hybridoma)) VH: QVQLQQPGTEFVKPGASVKLSCEASGYTFITYWMHWVKQRPGRGLEWIGGIDPNSGVIKYNEKFKSKATLTVDKPSSTAYMQLSSLTSEDSAVYYCARGEDLLIRTDAMDYWGQGTSVTVSS VL: DIVMTQSQKFVSTTLGDRVSITCKASQSVGIAVAWYQQKPGHSPNLLIFSTSNRYTGVPDRFTGSGSGTDFTLTISDVQSEDLADYFCQQYSRYPRTFGGGTKLEIK",156,14,< 10,,,
"13J018-1A4 (antibody, V domains shown, Mouse lead antibody (hybridoma)) VH: QVQLQQSGPEVVRPGASVKISCKAPDHIFSIHWMQWVRQRPGPGLEWIGEIFPGSGTTDYNEKFKGKATVTVDRGSRSAYMQFNSLTSEDSAVYFCASGAFDYWGQGTTLTVSS VL: DIQMTQSPSSLSASLGERVSLTCRASQDIGNRLNWLQQEPDGTIKRLIYATSSLDSGVPKRFSGSRSGSDYSLTISSLESEDFVDYYCLQYASSPFTFGTGTKLEIK",305,23,< 10,110,350,290
"Ch-13J0-18-1A4 (antibody, V domains shown) VH: QVQLQQSGPEVVRPGASVKISCKAPDHIFSIHWMQWVRQRPGPGLEWIGEIFPGSGTTDYNEKFKGKATVTVDRGSRSAYMQFNSLTSEDSAVYFCASGAFDYWGQGTTLTVSS VL: DIQMTQSPSSLSASLGERVSLTCRASQDIGNRLNWLQQEPDGTIKRLIYATSSLDSGVPKRFSGSRSGSDYSLTISSLESEDFVDYYCLQYASSPFTFGTGTKLEIK",,,,160,450,410
"206G9A10 (antibody, V domains shown, Mouse lead antibody (hybridoma)) VH: QVQLQQPGAELVKPGASVKLSCKASGYTFSIFCIHWVQQRPGRGLEWIGRIDPSSGGTKYNEKFESKATLTVDKSSSTAYMQLSSLTSEDSAVYYCARGEDLLVRTDAMDYWGQGTSVTVSS VL: DIVMTQSQKFMSTTVGDRVSITCKASQNAGAAVAWFQQKPGQSPKLLIYSASNRYTGVPDRFTGSGSGTDFTLTISNVQSEDLADYICQQYRSYPRTFGGGTKLEIK",35.1,0.2,< 10,,,
"227D3B11 (antibody, V domains shown, Mouse lead antibody (hybridoma)) VH: QVQLQQPGAELVKPGASVKLSCKASGYSFSTFFIHWIQQRPGRGLEWIGRIDPNSGGTKYNEKFESKATLTVDKPSSTAYMHLSSLTSEDSAVYYCARGEDLLIRTDAMDYWGQGTSVTVSS VL: DIVMTQSQKIMSTTVGDRVSITCKASQNAGIDVAWFQQKPRQSPKLLIFSTSNRYTGVPDRFAGSGSGTDFTLTIYNVQSEDLADYFCLQYRSYPRTFGGGTKLEIK",128,1.6,< 10,,,
"Ch-235F5B9 (antibody, V domains shown) VH: QVQLQQPGAELVKPGASVKLSCKASGYSFSTFFIHWIQQRPGRGLEWIGRIDPNSGATKYNEKFESKATLTVDKPSSTAYMHLSSLTSEDSAVYYCARGEDLLIRTDALDYWGQGTSVTVSS VL: DIVMTQSQKIMSTTVGDRVSITCKASQNAGIDVAWFQQKPRQSPKLLIFSKSNRYTGVPDRFAGSGSGTDFTLTIYNVQSEDLADYFCLQYRSYPRTFGGGTKLEIK",,,,130,270,190
"227D5A7 (antibody, V domains shown, Mouse lead antibody (hybridoma)) VH: QVQLQQPGAELVKPGASVKLSCKASGYTFSIFCVHWVQQRPGRGLEWIGRIDPSSGGTKYNEKFESKATLTVDKSSSTAYMQLSSLTPEDSAVYYCARGEDLLVRTDALDYWGQGSSVTVSS VL: DIVMTQSQKFMSTTVGDRVSITCKASQNAGAAVAWFQQKPGQSPKLLIYSASNRYTGVPDRFTGSGSGTDFTLTISNVQSEDLADYICQQYRSFPRTFGGGTKLEIK",56.8,0.8,< 10,,,
"235F5B9 (antibody, V domains shown, Mouse lead antibody (hybridoma)) VH: QVQLQQPGAELVKPGASVKLSCKASGYSFSTFFIHWIQQRPGRGLEWIGRIDPNSGATKYNEKFESKATLTVDKPSSTAYMHLSSLTSEDSAVYYCARGEDLLIRTDALDYWGQGTSVTVSS VL: DIVMTQSQKIMSTTVGDRVSITCKASQNAGIDVAWFQQKPRQSPKLLIFSKSNRYTGVPDRFAGSGSGTDFTLTIYNVQSEDLADYFCLQYRSYPRTFGGGTKLEIK",107,2.2,< 10,110,210,180
"250E5A11 (antibody, V domains shown, Mouse lead antibody (hybridoma)) VH: QVQLQQPGTELVKPGASVKLSCKASGYTFSIFCIHWVQQRPGRGLEWIGRIDPSSGGTKYNERFENKATLTVDKSSSTAYMQLSSLTFEDSAVYYCARGEDLLVRTDAMDYWGQGTSVTVSS VL: DIVMTQSQKFMSTTVGDRVSITCKASQNAGAAVAWFQQKPGQSPKLLIYSASNRYTGVPDRFTGSGSGTDFTLTITNVQSEDLADYICQQYRSFPRTFGGGTKLEIK",97.5,0.3,< 10,,,
"214G4B7 (antibody, V domains shown, Mouse lead antibody (hybridoma)) VH: QVQLQQPGAEFVKPGASVKLSCKASGYSFSTFCIHWVQQRPGRGLEWIGRIDPNSGGTKYNEKFESKATLTIDKPSSTAYVHLSSLTSEDSAVYYCARGEDLLIRTDAMDYWGQGTSVTVSS VL: DIVMTQSQKFMSTTVGDRVSITCKASQNAGTAVAWFQQKPGQSPKLLIFSTSNRYTGVPDRFTGSGSGTDFTLTISNMQSEDLADYFCLQYRSYPRTFGGGTKLEIK",296,3,< 10,,,
"217H12A7 (antibody, V domains shown, Mouse lead antibody (hybridoma)) VH: QVQLQQPGAELVKPGASVKLSCKASGYTFSTFLIHWVQQRPGRGLEWIGRIDPNSGGTKYNEKFERKVTLTVDKPSSTAYMQLSSLTSEDSAVYYCARGEDLLLRTDAMDYWGQGTSVTVSS VL: DIVMTQSQKFMSTTVGDRVSITCKASQNAGTAVAWFQQKPGQSPKLLIYSAFNRYTGVPDRFTGSGSGTDFTLTISNMQSEDLADYICQQYRSYPRTFGGGTKLEIK",129,13.4,< 10,,,
